Source: the supplement of paper PMC10567573

B1: ZNF511 (parent)
chain: HLYPADFRFDKPKKSRSPASAEAP
B2: DLC1 (parent)
chain: RDAIEALCRRLNTLNKCAVMKLEI

Variants of: B1
Test: protein stability index of a GFP-peptide fusion (GPS, HEK-293T) (PSI 1-6); higher = more stable
Conditions: c terminus: a fixed tail appended
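Note: lentivirally expressed fusions sorted by FACS into six bins by GFP to DsRed ratio, PSI derived from sequencing read proportions per bin multiplied by bin number.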

Protein stability index of substitutions, site by site:
P24: C 2.88; R 2.39; A 3.32; Y 2.69; I 2.61; N 3.09; F 2.94; S 3.62; K 2.97; E 2.6; W 2.14; H 2.87; M 2.53; G 2.42; T 2.71; Q 2.6; L 2.92; D 3.44; V 2.98
A23: T 2.72; L 2.88; K 3.19; I 2.69; E 2.88; Q 3.06; R 2.8; M 2.53; C 2.73; D 3.24; W 2.82; S 2.86; F 2.76; Y 2.63; P 3.37; G 3.28; V 2.73; N 3.1; H 3.13
E22: V 2.7; R 2.43; T 2.64; S 2.83; W 2.44; Y 2.34

Variants of: B2
Test: as above
Conditions: c terminus: a fixed tail appended

Protein stability index, by site and new letter:
A18: I 3.66; C 2.83; E 2.7; V 3.7; H 2.23; W 2.66; Y 3.01; R 1.07; L 2.58; Q 2.02; D 2.78; P 1.82; F 4.02
C17: H 4.06; S 2.17; T 3.57; V 4.14; N 1.83; L 2.35; Q 1.42; K 2.36; E 2; R 1.78; M 1.63; P 1.07; Y 3.7; D 3.14; A 1.16; I 3.57
A6: M 2.97; G 3.12; D 1.41; F 3.71; N 2.69; S 3.05; P 3.8; C 3.07; K 2.82; R 2.92; T 2.35; H 3.17; Y 1.73; E 1.64; L 3.11
R9: H 3.54; G 1.83; Q 4.01; E 4.07; F 2.45; D 2.25; I 1.79; K 1.69; S 4.18; C 3.38; N 3.68; L 1.63; V 2.69; T 2.37
C8: W 4.11; Y 3.24; K 1.84; H 2.7; R 1.41; L 2.33; M 3.9; P 2.04; F 2.82; V 2.73; I 4.17; A 2.37; D 2; G 3.13; Q 1.07; T 1.46; N 2.35; S 1.39
L7: R 2.13; K 2.16; N 2.5; Q 2.41; V 2.36; A 2.37; D 2.13; H 1.31; T 2.46; F 2.12; E 1.02; Y 1.81; G 2.13; P 2.31; S 1.78; M 3.54; C 1.97
T13: C 2.26; K 1.55; L 2.33; E 1.7; S 2.09; I 2.04; N 2.28; H 2.02; Y 2.79; R 2.35
R10: H 3.54; T 3.17; I 4.62; S 3.43; Y 2.21; P 2.71; Q 3.82; M 3.3; W 2.52; N 4.43; K 3.44; V 1.86; F 1.86; A 2.67; L 2.43; C 3.31
D2: I 2.03; Q 2.74; W 4.44; P 3.08; H 1.94; E 3.12; S 3.79; G 3.23; M 3.99; A 2.4
R1: V 3.38; Y 2.99; G 2.35; N 1.64; Q 3.23; K 2.23; L 2.02; E 2.47; I 2.9; S 3.94; M 3.94; P 2.85; D 2.4; H 3.12; C 2.52
N12: L 2.99; H 2.28; T 2.2; D 4.53; Q 1.45; C 3.35; R 1.79; Y 3.36; S 1.77; E 1.84; M 1.84; K 2.79; P 2.26; F 2.97; A 1.09; V 2.37
I4: F 3.05; K 2.37; Q 2.12; E 1.44; H 2.44; N 2.4; T 2.24; L 2.59; A 1.76; C 2.22; V 3.39; R 2.41; M 2.53; D 2.67
A3: V 3.3; I 2.5; C 3.99; Q 2.95; G 2.33; E 1.48; K 2.7; Y 2.37; M 3.33; N 3.61
L14: Y 3.26; V 2.93; D 1.37; H 2.74; A 1.68; Q 2.24; S 3.43; M 1.49; E 2.98; I 4.47; P 2.09; W 2.22; K 1.88; C 2.35
K21: N 1.61; L 2.53; M 1.69; R 2.88; P 1.33; E 1.73; A 2.6; Q 4.24; S 1.73; C 1.39; G 1.97; I 2.1
E5: A 2.3; L 3.21; I 2.84; V 1.97; W 2.13; M 3.42; S 1.83; P 3.06; Y 2.23; H 2.47; C 2.39; R 2.97
N15: A 3.2; V 3.72; Y 1.24; K 2.63; F 3.09; G 2.33; H 2.39; L 3.76; D 3.27; I 3.36; E 1.44; P 1.75; Q 5.09; T 1.98
M20: H 3.39; E 1.49; R 1.27; C 2.27; D 1.67; A 1.01; F 3.51; Q 1.45; N 1.88; T 2.35; P 2.02; G 1.85; S 2.64; K 1.49
K16: A 2.39; W 2.25; E 2.45; N 2.96; F 3.89; T 2.71; V 2.29; Q 3.29; G 3.19; L 1.48; M 2.58; I 1.93; D 1.76; C 2.44
L11: Y 2.67; H 1.6; S 3.62; T 2.52; E 1.84; K 2.96; Q 2.56; C 3.62; R 1.89; N 2.33; D 3.27; W 2.05; P 2.84; F 2.72
V19: G 1.6; Y 2.76; L 3.2; T 1.04; I 1.67; H 3.85; D 2.58; N 1.89; A 3.74; F 1.62; Q 1.84; W 3.62
